Test: soluble on expression in E. coli; label from the status in PepcDB or PDB records

Sequence | soluble on expression in E. coli
MSDPRPVVARCEGMFPADLARYEAQRTRKGGDLGHIDASRSHLNRPLLGEADWAKQAMAEIEAMRAENYADELEALQRRGRKKEIQKRMVEGPKDPWRASRHGPLREIILTAHKDWFNEIVFDGNRMDFAARERAFEDRAVAWLQQTFGDDIVHARADLDETTYHIHAVLVPRAVVKVNGATRRMLQPSIHPLIEDYEKLQDSVGAWFSAIGLARGEKRAEAIREAAAKGDPIPKKRHHCRPSDWRRRQEAEVIRQRAEVEAREAATAETAAALDARRADLAHHEERLAAEDARLSAVAATRRAEAGRLDHRVEAVVARETVADERMAEADAVLAVAEGPGAGAFDIDDAGGTPMLTERPENPSLLARLKRPVAGSDRGRARAVAALGAAWTRLRKAAGEAAEARLAREHEDLRKADEALLEVARTLPETARERIARARPTIARSLTGIGLTLRRLRGRDGGAQRDESGTGEKLEHHHHHH | soluble
MSDSSSSDGEDNQKFLGNRKKNLTKKKVVTEEIEKDDEEDVKEKSFAELGVSQPLCDACQRLGWMKPSKIQQAALPHALQGKDVIGLAETGSGKTGAFAIPVLQSLLDHPQAFFCLVLTPTRELAFQIGQQFEALGSGIGLIAAVIVGGVDMAAQAMALARRPHIIVATPGRLVDHLENTKGFNLKALKFLIMDEADRILNMDFEVELDKILKVIPRERRTYLFSATMTKKVSKLERASLRDPARVSVSSRYKTVDNLKQHYIFVPNKYKETYLVYLLNEHAGNSAIVFCATCATTMQIAVMLRQLGMQAVPLHGQMSQEKRLGSLNKFKSKAREILVCTDVAARGLDIPHVDMVINYDMPSQSKDYVHRVGRTARAGRSGIAITVVTQYDVEAYQKIEANLGKKLDEYKCVENEVMVLVERTQEATENARIEMKEMDEKKKSGKKRRQNDDFGDTEESGGRFKMGIKSMGGRGGSGGGRGGKKKKMSK | soluble
MSDTPAQTPEPSKKTPEPSGVDLARVALRAAKEQARARGDAAQQKRQARRGGLRSGARADGRDPMALGAAINRLLTERGWETPAAVGGVMGRWPQIVGEDLAKHCVPQRYDEDERVLTVQCDSTAWATQLRLLAPQLVARLNEDLGHGTVRLLKVQGPGGPARRYGPLRAPGSTGPGDTYG | not soluble
MSDTPQAILLMGPTASGKTGLALELARRFPVEIVSVDSALVYRDMDIGTAKPTAEEMAACPHHLIDVISPLQSYSAAQFHADANRLIADIQARGKLPLLVGGTMLYYKALLEGLSDLPQADAALRAELDADAALLGWPAMHARLAELDPATASRLNPNDSQRIHRALEVCLLSGKPMSELIAQGKEAAAGFRFLPLALVPRERGWLHARIAERFRIMLEQGFLDEVSRLRAKYPELTLNLPSMRCVGYRQAWEHQDGLYGHDEFVERGVAATRQLAKRQLTWTRSLDAIPVDAQRDGLAGLLGDAVDDFLAGRPPAESLRYAGDF | soluble
MSDVSRILKEARSQSRLTTLDYAEQIFDDFMELHGDRHFADDGAIVGGIGLLDGQAVTVIGVQKGKNLQDNLNRNFGQPNPEGYRKALRLMKQAEKFKRPVVTFINTAGAYPGIGAEERGQGEAIARNLLEMSDLKVPIIAIIIGEGGSGGALALAVADKVWMLEHTMYAVLSPEGFASILWKDGSRSIEAAELMKITAGELLKMEVVDKVIPEHGYFSSEIIQMLKTNLIEELKNLDQYPLNDLLEKRYQRFRKY | not soluble
MSDYENDDECWNVLEGFRVTLTSVIDPSRITPYLRQCKVLNPDDEEQVLSDPNLVIRKRKVGVLLDILQRTGHKGYVAFLESLELYYPQLYKKVTGKEPARVFSMIIDASGESGLTQLLMTEVMKLQKKVQDLTALLSSKDDFIKELRVKDSLLRKHQERVQRLKEECEAGSRELKRCKEENYDLAMRLAHQSEEKGAALMRNRDLQLEIDQLKHSLMKAEDDCKVERKHTLKLRHAMEQRPSQELLWELQQEKALLQARVQELEASVQEGKLDRSSPYIQVLEEDWRQALRDHQEQANTIFSLRKDLRQGEARRLRCMEEKEMFELQCLALRKDSKMYKDRIEAILLQMEEVAIERDQAIATREELHAQHARGLQEKDALRKQVRELGEKADELQLQVFQCEAQLLAVEGRLRRQQLETLVLSSDLEDGSPRRSQELSLPQDLEDTQLSDKGCLAGGGSPKQPFAALHQEQVLRNPHDAGLSSGEPPEKERRRLKESFENYRRKRALRKMQKGWRQGEEDRENTTGSDNTDTEGS | soluble
MSEAAQTLDGWYCLHDFRTIDWSAWKTLPNEEREAAISEFLALVDQWETTESEKQGSHAVYTIVGQKADILFMILRPTLDELHEIETALNKTKLADYLLPAYSYVSVVELSNYLASGSEDPYQIPEVRRRLYPILPKTNYICFYPMDKRRQGNDNWYMLSMEQRRELMRAHGMTGRKYAGKVTQIITGSVGLDDFEWGVTLFSDDALQFKKLVYEMRFDEVSARFGEFGSFFVGTRLPMENVSSFFHV | soluble
MSEDSELIEQVIEQPDSLIISPPSDSSSSSYNHIQPFVYLESTATTQTNHNVLLILNQKITIDLISLWKKCEIIVCADGGANSLYEYFNDNNHHHHHENLQRSDYIPDYIVGDFDSISPDVKTYYESHGSKIIRQSSQYYNDFTKSIHCIQLHYQLNHTKENWFESIDEVDGLAKLWNGLNNSSDVVVDIDITIYVLNAIGGRFDQTVQSINQLYIMNEDYPKVTVFFITTNDIIFLLKKGVNYISYKNRLMFHKDNGSSPTPTCGLLPLSNKTPIILNSYGLKYDMRNWKTEMLGQVSSSNRISGETGFIVECSDDIVMNIEIDV | soluble
MSEEKQTVEQNETEEQEIIEEQAAADEQQEETNESELLQNQINELQGLLEEKENKLLRVQADFENYKRRSRLEMEASQKYRSQNIVTDLLPALDSFERALQVEADNEQTKSLLQGMEMVHRQLVEALKKEGVEAIEAVGQEFDPNLHQAVMQAEDENYGSNIVVEEMQKGYKLKDRVIRPSMVKVNQ | not soluble
MSEEKYNYLDMHLSRKGSIYDSLIHLKPDNENKFGLDENSDICRTLSNYADYSTKKVKYFVNKRFSEIENIEKNIEDIDYSAFKYFRTLPPKYSDENDIRNNIIFNNNNIYIYAENKNGTLNEQACISISPDNNIIYCSTKGRRYTIGGHAGIQKNLNNEYNFLDENNFISPQNSIKTYTYDALDSSDLSSSFPKMNLIKTNDVLDDTNTNRINTANIFNEHIIMNSCESSNLNTTKCLSKNLSVQKLFKYYKKCSQDLEHEQRICKPCAHVYNGSTCMNGDECSFCHHPDHVLISAKKWKKLVKNNMEKLNILLHILRNPDDVNANFLNEMIKQNTKNFKKNKKINNIKNNTIINMYNQNIRHSNSNNNTINDMNNNNINKRHNKNRIFYFPQRNTDNILRPPYNNYESNETTDMYKNNYQVRNCNFSPYHMNM | not soluble
MSEEPAAKRMKNADEFPNLRSEVAGPVKEKLIELDAIQHQLDVMSENAAEEVLKVEQIFNQKRLPIYEKRKKLTTKIDNFWQTAFLNHHLLSTAIPEEQEDLLAALRDLEVQEFEDLRSGFKIIMTFDPNEYFTNEVITKSYHLQSESPSTEITEIEWKENKKPPFKPEDGDSAHTFLEWLTYAALPDSDEIAEVIKDDLYVNPLQYYVMPDMQEVEEDDIEDFLNEERGVDENGQRIPRRNISDSLKVDQDESADGQEGEDEEEEDMGEEEEDGVEEEAEGEEEEEDGAIEEEGGDENVEAHVAVNPENTAE | soluble
MSEFLPFSRPAMGVEELAAVKEVLESGWITTGPKNQALEQAFCQLTGNQHAIAVSSATAGMHITLMALKIGKGDEVITPSLTWVSTLNMISLLGATPVMVDVDRDTLMVTPEAIESAITPRTKAIIPVHYAGAPADIDAIRAIGERYGIAVIEDAAHAVGTYYKGRHIGAKGTAIFSFHAIKNITCAEGGLIVTDNENLARQLRMLKFHGLGVDAYDRQTWGRAPQAEVLTPGYKYNLTDINAAIALTQLVKLEHLNTRRREIAQQYQQALAALPFQPLSLPAWPHVHAWHLFIIRVDEQRCGISRDALMEALKERGIGTGLHFRAAHTQKYYRERFPTLSLPNTEWNSERICSLPLFPDMTTADADHVITALQQLAGQ | soluble
MSEIDLTSEYSCSKHSKNPETAGEEFDVKVEKIYEDLKNSSIERQEDIPYFPNGEMTRIDIWGPETAEKVFIMIHGGYWLIGNRKKCLAVVHVAQKLGYTVVSVGYDYANKDHVLSKTIVEALEGVQFALKKFKNAKKIVIGGHSVGAHLAFQAVTRIHDPRISGAYLSAGIYKIQELTSTTYGHDLGLTSEEAETCSCDYELMKHVRFPVLIACCRRESPKLYQQNQDFSSQVANAQYKV | not soluble
MSEKLRRCRKELTAAIDRAFEGVRHSQECTAQQRLDAPSLTSQPVHRLLCRNPLAACPSAAPYSGASCAPESENPAFGTHHIPVNSKLQQPLYPKRKPLTSKENVLMQSSILARDRQFWRAAGDGEDWRKDSLRKDMERDLKADPNVLLSSSSQEVTKDLLDMIDHTSIRTIEELAGKLEFENELNRVCGHCQDSPFKEEAWALLVDESPQKALDADPGSLKQALDDQNIVETVLDLEEDYNLMTSFKYQIE | soluble
MSELNALLKDINGSLTATSESLERLSGIYSNSATDEIPESNQLHEHLFYDAKKPAEKVSLLSLKNGSMLGYINSLLMLIGNRLDDECKDPSAMDARERSIQHRVVLERGVKPLEKKLAYQLDKLTRAYVKMEKEYKDAEKRALEKSTLVNHSGNDDSEDDESSEDEIAYRPNTSGIINTNKKSSAYRVEETAKQENGEENDDNETGVYKPPKITAVLPPQQTHFEDRFDAREHKDRSNKSRMQAMEEYIRESSDQPDWSASIGADIVNHGRGGIKSLRDTEKERRVTSFEEDNFTRLNITNKAEKRKQKQRERNARMNVIGGEDFGIFSSKRKLEDSTSRRGAKKTRSAWDRAQRRL | soluble
MSELSQLSPQPLWDIFAKICSIPHPSYHEEQLAEYIVGWAKEKGFHVERDQVGNILIRQPATAGMENRKPVVLQAHLDMVPQKNNDTVHDFTKDPIQPYIDGEWVKARGTTLGADNGIGMASALAVLADENVVHGPLEVLLTMTEEAGMDGAFGLQSNWLQADILINTDSEEEGEIYMGCAGGIDFTSNLHLDREAVPAGFETFKLTLKGLKGGHSGGEIHVGLGNANKLLVRFLAGHAEELDLRLIDFNGGTLRNAIPREAFATIAVAADKVDALKSLVNTYQEILKNELAEKEKNLALLLDSVANDKAALIAKSRDTFIRLLNATPNGVIRNSDVAKGVVETSLNVGVVTMTDNNVEIHCLIRSLIDSGKDYVVSMLDSLGKLAGAKTEAKGAYPGWQPDANSPVMHLVRETYQRLFNKTPNIQIIHAGLECGLFKKPYPEMDMVSIGPTITGPHSPDEQVHIESVGHYWTLLTELLKEIPAKLEHHHHHH | soluble
MSELTIGLILPDVLGTYGDDGNALVLRQRARLRGISAEIHTVRLGEAVPEGLDLYCLGGGEDTAQILAAEHLNNDRGLRRAADSGRPILGICAGLQVLGRSFRASGKIVEGVGLIDATTASLAKRTIGELQSTPTAAGFTAELTEPLTGFENHMGATILGPDAQPLGAVTRGVGNTDLHGITTASVSDEQVSYEGAVQGNVVCTYMHGPALARNPQLADLLLAKAMGIALADLAPLDLPVVDQLRKERLA | not soluble
MSENNKIILYQDDNEIIRVSVRFSDEDLWLTQNQLAEIYCTTQQNISQHVDNIYKDGELFTEATNKKFLLVRQEGNRQVRRNIDHYNLDMVIALGYRVQSQVATRFRRWATQRLHEYIQKGFAMDDERLKQGGNRYFRELLQRIRDIRSSERNFYQQVTDIYATATDYDPRDEMTKMFFATVQNKLHYAVHENTAAEVIYNRVDNEKPFVGMTNFKGNYVTKDDVKIAKNYLSEIELQRLNLLVSGFLDFAEFQALEMNPMTMKDWIEALDNQIIAHKRKVLIDKGRISHKQAIEKAEKEFAIYRKREMDLLESDFDKEIKRLKDKNDNNPN | not soluble
